Data published in patent US6586197B1, “Methods and materials for identifying novel pesticide agents” (priority 1999, dated 2003).

T1: native 120 kDa APN from M sexta BBMV (Manduca sexta, UniProt Q11001)
T1 construct: native 120 kDa APN from M sexta BBMV; from tissue; host or cells: brush border membrane vesicles from midguts of 5th instar M. sexta larvae, CHAPS-solubilised
T1 sequence (Q11001 36-968): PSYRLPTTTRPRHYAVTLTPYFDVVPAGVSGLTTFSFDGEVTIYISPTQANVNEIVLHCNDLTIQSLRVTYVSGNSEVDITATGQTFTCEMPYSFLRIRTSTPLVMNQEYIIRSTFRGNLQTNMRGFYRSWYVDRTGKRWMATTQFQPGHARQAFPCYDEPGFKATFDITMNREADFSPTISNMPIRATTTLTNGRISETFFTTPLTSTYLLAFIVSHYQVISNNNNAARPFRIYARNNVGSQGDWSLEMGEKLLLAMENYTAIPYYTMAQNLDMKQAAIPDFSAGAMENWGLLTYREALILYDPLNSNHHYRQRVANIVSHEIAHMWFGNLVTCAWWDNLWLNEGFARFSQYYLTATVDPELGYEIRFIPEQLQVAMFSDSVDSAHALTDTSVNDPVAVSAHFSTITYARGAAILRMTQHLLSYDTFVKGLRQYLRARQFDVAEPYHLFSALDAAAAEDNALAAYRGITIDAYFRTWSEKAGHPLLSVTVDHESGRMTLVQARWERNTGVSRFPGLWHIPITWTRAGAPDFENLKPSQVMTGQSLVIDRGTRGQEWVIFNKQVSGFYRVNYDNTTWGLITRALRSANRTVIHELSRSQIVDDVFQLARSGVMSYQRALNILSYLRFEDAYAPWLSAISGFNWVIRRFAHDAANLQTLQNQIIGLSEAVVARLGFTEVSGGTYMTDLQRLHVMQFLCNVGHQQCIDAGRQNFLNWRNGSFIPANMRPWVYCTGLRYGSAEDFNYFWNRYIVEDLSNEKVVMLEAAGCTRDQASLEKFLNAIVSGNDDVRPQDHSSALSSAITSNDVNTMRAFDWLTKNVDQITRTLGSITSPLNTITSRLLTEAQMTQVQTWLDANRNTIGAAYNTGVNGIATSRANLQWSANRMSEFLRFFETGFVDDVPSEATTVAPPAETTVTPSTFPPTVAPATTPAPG

B1: Cry1Ba (65 kDa): B. thuringiensis Cry1Ba toxin, 65 kDa form, provided by Dr. Masson (protein)
chain: IEDSLCIAEGNNIDPFVSASTVQTGINIAGRILGVLGVPFAGQLASFYSFLVGELWPRGRDQWEIFLEHVEQLINQQITENARNTALARLQGLGDSFRAYQQSLEDWLENRDDARTRSVLYTQYIALELDFLNAMPLFAIRNQEVPLLMVYAQAANLHLLLLRDASLFGSEFGLTSQEIQRYYERQVERTRDYSDYCVEWYNTGLNSLRGTNAASWVRYNQFRRDLTLGVLDLVALFPSYDTRTYPINTSAQLTREVYTDAIGATGVNMASMNWYNNNAPSFSAIEAAAIRSPHLLDFLEQLTIFSASSRWSNTRHMTYWRGHTIQSRPIGGGLNTSTHGATNTSINPVTLRFASRDVYRTESYAGVLLWGIYLEPIHGVPTVRFNFTNPQNISDRGTANYSQPYESPGLQLKDSETELPPETTERPNYESYSHRLSHIGIILQSRVNVPVYSWTHRSADRTNTIGPNRITQIPMVKASELPQGTTVVRGPGFTGGDILRRTNTGGFGPIRVTVNGPLTQRYRIGFRYASTVDFDFFVSRGGTTVNNFRFLRTMNSGDELKYGNFVRRAFTTPFTFTQIQDIIRTSIQGLSGNGEVYIDKIEIIPVTATFEAEYDLER
B2: Cry3a: trypsin-activated, purified B. thuringiensis Cry3a toxin (protein)
chain: NPHSQGRIRELFSQAESHFRNSMPSFAISGYEVLFLTTYAQAANTHLFLLKDAQIYGEEWGYEKEDIAEFYKRQLKLTQEYTDHCVKWYNVGLDKLRGSSYESWVNFNRYRREMTLTVLDLIALFPLYDVRLYPKEVKTELTRDVLTDPIVGVNNLRGYGTTFSNIENYIRKPHLFDYLHRIQFHTRFQPGYYGNDSFNYWSGNYVSTRPSIGSNDIITSPFYGNKSSEPVQNLEFNGEKVYRAVANTNLAVWPSAVYSGVTKVEFSQYNDQTDEASTQTYDSKRNVGAVSWDSIDQLPPETTDEPLEKGYSHQLNYVMCFLMQGSRGTIPVLTWTHKSVDFFNMIDSKKITQLPLVKAYKLQSGASVVAGPRFTGGDIIQCTENGSAATIYVTPDVSYSQKYRARIHYASTSQITFTLSLDGAPFNQYYFDKTINKGDTLTYNSFNLASFSTPFELSGNNLQIGVTGLSAGDKVYIDKIEFIPVN

Tests used:
[1] = system: expressed 120 kDa APN on Sf21 cells transfected with pHSP120; assay: Immunofluorescence binding of rhodamine-labeled toxins to Sf21 cells (confocal microscopy), pHSP120; set-up: species or system Manduca sexta; settings: toxin 1 μg/ml, fixed Sf21 cells transfected with pHSP120
Method: Growth of B. thuringiensis strains, trypsin activation, and fast-performance liquid chromatography (Pharmacia) purification of Cry1Ac, […] and Cry3a toxins were done as previously described (Garczynski et al 1991; Lu and Adang 1996). […] The purified Cry1Ac and Cry1Ba (200 μg) were labeled with 5-(and-6)-carboxytetramethylrhodamine, succinimidyl ester [5(6)-TAMRA SE] (Molecular Probe, Eugene, Oreg.) according to the manufacturer's instructions. Briefly, 5(6)-TAMRA (5 mg) were dissolved in 0.5 ml of Dimethylformamide (DMF) immediately before starting the labeling. The dye solution (100 μl) was slowly added into 500 μl of toxin sample (200 μg toxins) and incubated for 1 h at room temperature. The reaction was stopped by adding 0.1 ml of 1.5 M hydroxylamine, pH 8.5, and then the mixture was incubated. for 1h at room temperature. […]
Sf21 cells were plated onto a microscope cover glass (18×18 mm) in a tissue culture dish (60×15 mm diameter), and then transfected and heat-shocked as described above. […] Immunostained cells were observed using fluorescence microscopy or fluorescence confocal microscopy (Center for Advanced Ultrastructural Research, University of Georgia).
Since the expressed 120 kDa APN located on Sf21 cell surfaces, we examined the binding of Cry1toxins to Sf21 cells using double immunofluorescence staining. […] And then cells were viewed by fluorescence confocal microscopy.

[2] = system: Sf21 cells transfected with pHSP-HR5; assay: Toxicity assay (Trypan blue cell mortality), control-vector Sf21 cells; settings: 40 μg/ml toxin in insect PBS, 2 h, Trypan blue (0.1%) staining; means of three assays (±standard error); control vector
Method: The pHSP120 plasmid DNA was isolated and purified using a Plasmid Maxi Kit (Qiagen, Valencia, Calif.). Sf21 (IPLB-Sf21) cells (Vaughn et al., 1977) were plated at 1.8×10^6 cells per plate (60 mm diameter) prior to transfection with pHSP120 DNA. Plasmid DNA (10 μg) was mixed with 5 μl of Lipofectin reagent (Gibco BRL, Gaithersburg, Md.) and combined with 1 ml of TC-100 medium (Gibco BRL, Gaithersburg, Md.). The mixture was incubated at room temperature for 15 min. Following 3 washes with TC-100 medium, the DNA/Lipofectin mixture was added to the cells, and then the cells were incubated at room temperature for 4 h on a rocker. After removal of DNA/Lipofectin mixture, TC-100 with 10% fetal bovine serum (4 ml) was added to the plates and the cells were incubated at 27° C. overnight. […] After incubation at 27° C. for 24 h, the cells were collected and analyzed using immunofluorescence localization and Western blotting.
Sf21 cells (1.8×10^6) were grown and heat-shocked as described above. […] Cell mortality was determined by trypan blue staining as described by Thomas and Ellar (1983).
(§1) Thetoxicity of three Cry1toxins to Sf21 cells expressing M sexta 120 APN was determined. A single concentration of Cry1toxins (40 μg/ml) was used and the cell mortality was measured by Trypan blue staining (Thomas and Ellar 1983).

[3] = system: Sf21 cells transfected with pHSP120; assay: Toxicity assay (Trypan blue cell mortality), Sf21 cells expressing M. sexta 120 kDa APN; settings: 2 h
Method: The pHSP120 plasmid DNA was isolated and purified using a Plasmid Maxi Kit (Qiagen, Valencia, Calif.). Sf21 (IPLB-Sf21) cells (Vaughn et al., 1977) were plated at 1.8×10^6 cells per plate (60 mm diameter) prior to transfection with pHSP120 DNA. Plasmid DNA (10 μg) was mixed with 5 μl of Lipofectin reagent (Gibco BRL, Gaithersburg, Md.) and combined with 1 ml of TC-100 medium (Gibco BRL, Gaithersburg, Md.). The mixture was incubated at room temperature for 15 min. Following 3 washes with TC-100 medium, the DNA/Lipofectin mixture was added to the cells, and then the cells were incubated at room temperature for 4 h on a rocker. After removal of DNA/Lipofectin mixture, TC-100 with 10% fetal bovine serum (4 ml) was added to the plates and the cells were incubated at 27° C. overnight. Expression of 120 kDa APN in Sf21 cells was induced by heat-shocking cells at 42° C. for 30 min the following day. After incubation at 27° C. for 24 h, the cells were collected and analyzed using immunofluorescence localization and Western blotting.
Sf21 cells (1.8×10^6) were grown and heat-shocked as described above. […] The freshly prepared toxin solution (1 ml) was added to each Sf21 cell plate and incubated at room temperature for 2 h. Cell mortality was determined by trypan blue staining as described by Thomas and Ellar (1983).
as §1

[4] = system: expressed 120 kDa APN from Sf21 cells; assay: Toxin affinity chromatography and anti-APN immunoblot, Sf21 cells; format: binding, Manduca sexta; settings: CHAPS-solubilized Sf21 cells, anti-APN immunoblot (FIG. 13)
Method: Affinity purification method of M. sexta 120 kDa APN from Sf21 cells or M. sexta midgut BBMV was described in Luo et al (1996). Briefly, Cry1Ac, Cry1Ba and Cry3a toxins (200 μg) were coupled to 400 μl of cyanogen bromide-activated Sepharose 4B in 20 mM Na2CO3, pH 9.6. M sexta BBMV (1 ml, 3.4 mg/ml proteins) or Sf21 cells (10^7 cells) were solubilized with 2% 3-[(3-cholamidopropyl) dimethylammoniol]-1-propane-sulphonate (CHAPS) in buffer A (50 mM Na2CO3, pH 9.6, 200 mM NaCl, 5 mM EGTA, 0.1% CHAPS). Insoluble material was removed by centrifugation at 27,000×g for 30 min at 4° C. CHAPS-solubilized BBMV (1 ml) or Sf21 cells (2 ml) were then added to the toxin-coupled Sepharose beads equilibrated with Buffer A. The mixture was incubated at 4° C. overnight. After washing with 100 ml of Buffer A, the binding protein-toxin complex was dissociated from the beads by heating in SDS-PAGE sample buffer at 100° C. for 5 min. The samples were separated by 8% SDS-PAGE, and then electrophoretically transferred to nitrocellulose membrane (Millipore Corp., Bedford, Mass.) in transfer buffer (Towbin et al., 1979) at 4° C. overnight. The membrane was blocked with 5% non-fat dry milk in PBST at room temperature for 1 h, and then probed with anti-APN antibody (0.5 μg/ml) in PBST containing 0.1% non-fat dry milk for 2 h. […]

[5] = molecular target: T1, native 120 kDa APN from M sexta BBMV; assay: Toxin affinity chromatography and anti-APN immunoblot, midgut BBMV; format: binding; settings: CHAPS-solubilized M sexta BBMV, anti-APN immunoblot (FIG. 13)
Method: M. sexta larvae were reared on artificial diet (Southland Products, Inc.; Lake Village, Ark.) at 26° C., 70% relative humidity with a photoperiod of 12:12 (Light:Dark) h. Midguts were dissected from second day 5th instar larvae, and either immediately used to prepare brush border membrane vesicles (BBMV) or stored at −80° C. BBMV were prepared according to that described in Wolfersberger et al. (1987) as modified in Ferre et al. (1991) and stored in 0.3 M mannitol, 5 mM EGTA, 17 mM Tris-Cl, pH 7.5, at −80° C. until needed. The 115 kDa M. sexta APN was purified as described previously (Lu and Adang, 1996).
Affinity purification method of M. sexta 120 kDa APN from Sf21 cells or M. sexta midgut BBMV was described in Luo et al (1996). Briefly, Cry1Ac, Cry1Ba and Cry3a toxins (200 μg) were coupled to 400 μl of cyanogen bromide-activated Sepharose 4B in 20 mM Na2CO3, pH 9.6. M sexta BBMV (1 ml, 3.4 mg/ml proteins) or Sf21 cells (10^7 cells) were solubilized with 2% 3-[(3-cholamidopropyl) dimethylammoniol]-1-propane-sulphonate (CHAPS) in buffer A (50 mM Na2CO3, pH 9.6, 200 mM NaCl, 5 mM EGTA, 0.1% CHAPS). Insoluble material was removed by centrifugation at 27,000×g for 30 min at 4° C. CHAPS-solubilized BBMV (1 ml) or Sf21 cells (2 ml) were then added to the toxin-coupled Sepharose beads equilibrated with Buffer A. The mixture was incubated at 4° C. overnight. […]

[6] = 40 μg/ml toxin, the sentence does not say which plasmid

Molecule	Binding of rhodamine-labeled toxin (immunofluorescence) [1]	Mortality (%) (±SE), Cells transfected with pHSP-HR5 [2]	Mortality (%) (±SE), Cells transfected with pHSP 120 ([3]; 40 μg/ml toxin in insect PBS, Trypan blue (0.1%) staining, means of three assays (±standard error))	Mortality of Sf21 cells (cells killed) [3, 6]	Toxicity to Sf21 cells in words [3, 6]	Binding of APN to toxin affinity column [4]	Binding of APN to toxin affinity column [5]
B1	only bound weakly	16.5 (±0.1) %	17.6 (±0.9) %	about 17%	low toxicity	bound weakly	bound weakly
B2						did not bind	
